Assay results: article PMC5505988

Biological target: HLA-A*11:01 heavy chain with β2-microglobulin (human)

SSCS, N-terminal 4-mer of EBV LMP2(340–349) (peptide)
melting temperature (Tm) of the pHLA complex refolded with SSCS + SCPLSK (m9 + m10), thermofluor thermal shift assay: 50.3 °C

SSCSS, N-terminal 5-mer of EBV LMP2(340–349) (peptide)
melting temperature (Tm) of the pHLA complex refolded with SSCSS + SCPLSK (m11 + m10), thermofluor thermal shift assay: 49.7 °C

SSCSSC, EBV LMP2(340–345), N-terminal 6-mer (peptide)
melting temperature (Tm) of the pHLA complex refolded with SSCSSC + SCPLSK (m13 + m10), thermofluor thermal shift assay: 48.7 °C | melting temperature (Tm) of the pHLA complex refolded with SSCSSC + SSCPLSK (m13 + m5), thermofluor thermal shift assay: 49.4 °C
